Assay results from patent publication US20080058263A1 (published 2008).

T1: VEGFR-3-Fc (UniProt P35916 25-328)
T1 construct: domain: first three Ig domains; conditioned supernatant of 293T cells; also called VEGFR-3-Fc fusion protein; not shown: Fc fragment of the pIg vector
T1 sequence (looked up): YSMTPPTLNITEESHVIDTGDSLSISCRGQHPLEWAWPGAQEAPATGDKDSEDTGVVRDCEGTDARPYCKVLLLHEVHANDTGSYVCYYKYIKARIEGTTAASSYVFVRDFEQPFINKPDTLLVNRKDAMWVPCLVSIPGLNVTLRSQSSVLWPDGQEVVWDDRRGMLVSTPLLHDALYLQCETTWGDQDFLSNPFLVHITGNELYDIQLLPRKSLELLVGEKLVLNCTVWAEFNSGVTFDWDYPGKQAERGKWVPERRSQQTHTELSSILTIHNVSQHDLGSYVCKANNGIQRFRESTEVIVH


Tests used:
Assay in all cases: receptor-Fc IP
[1] = biological target: T1, VEGFR-3-Fc
How it was run: (§1)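 Binding of ligand from sample supernatant measured by pentahistidine-antibody immunoprecipitation. IP mix: PBS with 1.5% BSA, 0.06% Tween 20, 3 μg/ml heparin and 400 ng/ml fusion protein, added 1:2 to sample supernatant.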

[2] = biological target: T2, VEGFR-1-Fc (UniProt P17948 27-338)
T2 construct: domain: first three Ig domains; expressed in Drosophila S2 cells, purified on Protein A sepharose; also called VEGFR-1-Fc fusion protein; not shown: Fc fragment from the Signal-pIgPlus vector
How it was run: as §1

[3] = biological target: T3, VEGFR-2-Fc (UniProt P35968 20-322)
T3 construct: domain: first 3 Ig domains; conditioned supernatant of 293T cells; also called VEGFR-2-Fc fusion protein; not shown: Fc fragment of the pIg vector
How it was run: as §1

T2 sequence (P17948 27-338): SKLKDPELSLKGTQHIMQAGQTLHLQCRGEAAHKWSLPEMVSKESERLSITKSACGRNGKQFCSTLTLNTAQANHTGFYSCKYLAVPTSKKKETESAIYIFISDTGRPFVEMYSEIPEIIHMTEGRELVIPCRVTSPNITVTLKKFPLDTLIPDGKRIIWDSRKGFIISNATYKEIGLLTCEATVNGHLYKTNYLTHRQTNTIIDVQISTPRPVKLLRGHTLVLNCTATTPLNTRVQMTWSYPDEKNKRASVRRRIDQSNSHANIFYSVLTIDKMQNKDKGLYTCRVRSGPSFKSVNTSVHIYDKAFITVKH
T3 sequence (P35968 20-322): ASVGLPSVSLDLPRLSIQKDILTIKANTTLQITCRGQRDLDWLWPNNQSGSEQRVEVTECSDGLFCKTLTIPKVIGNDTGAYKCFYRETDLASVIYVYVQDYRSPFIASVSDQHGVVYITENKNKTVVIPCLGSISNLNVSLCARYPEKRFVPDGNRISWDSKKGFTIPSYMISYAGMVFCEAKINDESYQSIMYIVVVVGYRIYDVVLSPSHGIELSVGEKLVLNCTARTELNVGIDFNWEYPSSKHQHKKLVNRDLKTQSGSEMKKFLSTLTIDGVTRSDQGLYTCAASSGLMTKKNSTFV

| binding result [1] | binding result [2] | binding result [3] | Binder |
| --- | --- | --- | --- |
| no binding | no binding | no binding | 74-16 (ligand) GQNHHEVVKSIDNEWRKTQCMPREVCIDVGKEFGVATNTFFKPSCVPLMRCGGCCNSEGLQCMNTSTSYLSKTLFEITVPLSQGPKPVTISFANHTSCRCMSKLD |
| no binding | no binding | no binding | 82-1 (ligand) AHYNTEILKFMDVYQRSYCHPIETLVDIFQEFGVATNTFFKPPCVSVYRCGGCCNDEGLECVPTEESNITMQIMRIKPHQGQHIGEMSFLQHNKCECRPKKD |
| no binding | no binding | no binding | 82-3 (ligand) AHYNTEILKFMDVYQRSYCHPIETLVDIFQEFGVATNTFFKPPCVSVYRCGGCCNSEGLQCVPTEESNITMQIMRIKPHQGQHIGEMSFLQHNKCECRPKKD |
| no binding | no binding | no binding | 74-15 (ligand) GQNHHEVVKSIDNEWRKTQCMPREVCIDVGKEFGVATNTFFKPSCVPLMRCGGCCNSEGLQCVPTEESNITMQIMRITVPLSQGPKPVTISFANHTSCRCMSKLD |
| no binding | no binding | no binding | 73-5 (ligand) GQNHHEVVKSIDNEWRKTQCMPREVCIDVGKEYPDEIEYIFKPPCVSVYRCGGCCNDEGLECVPTEESNITMQIMRIKPHQGQHIGEMSFANHTSCRCMSKLD |
| no binding | no binding | no binding | 74-6 (ligand) GQNHHEVVKSIDNEWRKTQCMPREVCIDVGKEFGVATNTFFKPSCVPLMRCGGCCNDEGLECMNTSTSYLSKTLFEIKPHQGQHIGEMSFANHTSCRCMSKLD |
| no binding | no binding | no binding | 71-10 (ligand) GQNHHEVVKSIDNEWRKTQCMPREVCIDVGKEYPDEIEYIFKPSCVPLMRCGGCCNDEGLECMNTSTSYLSKTLFEITVPLSQGPKPVTISFLQHNKCECRPKKD |
| no binding | no binding | no binding | 73-12 (ligand) GQNHHEVVKSIDNEWRKTQCMPREVCIDVGKEYPDEIEYIFKPPCVSVYRCGGCCNSEGLQCMNTSTSYLSKTLFEITVPLSQGPKPVTISFLQHNKCECRPKKD |
| no binding | no binding | no binding | 73-10 (ligand) GQNHHEVVKSIDNEWRKTQCMPREVCIDVGKEYPDEIEYIFKPPCVSVYRCGGCCNDEGLECMNTSTSYLSKTLFEITVPLSQGPKPVTISFLQHNKCECRPKKD |
| no binding | no binding | no binding | 71-12 (ligand) GQNHHEVVKSIDNEWRKTQCMPREVCIDVGKEYPDEIEYIFKPSCVPLMRCGGCCNSEGLQCMNTSTSYLSKTLFEITVPLSQGPKPVTISFLQHNKCECRPKKD |
| no binding | no binding | no binding | 71-16 (ligand) GQNHHEVVKSIDNEWRKTQCMPREVCIDVGKEYPDEIEYIFKPSCVPLMRCGGCCNSEGLQCMNTSTSYLSKTLFEITVPLSQGPKPVTISFANHTSCRCMSKLD |
| no binding | no binding | no binding | 71-4 (ligand) GQNHHEVVKSIDNEWRKTQCMPREVCIDVGKEYPDEIEYIFKPSCVPLMRCGGCCNSEGLQCMNTSTSYLSKTLFEIKPHQGQHIGEMSFLQHNKCECRPKKD |
| no binding | no binding | no binding | 74-4 (ligand) GQNHHEVVKSIDNEWRKTQCMPREVCIDVGKEFGVATNTFFKPSCVPLMRCGGCCNSEGLQCMNTSTSYLSKTLFEIKPHQGQHIGEMSFLQHNKCECRPKKD |
| no binding | no binding | no binding | 73-2 (ligand) GQNHHEVVKSIDNEWRKTQCMPREVCIDVGKEYPDEIEYIFKPPCVSVYRCGGCCNDEGLECMNTSTSYLSKTLFEIKPHQGQHIGEMSFLQHNKCECRPKKD |
| no binding | no binding | no binding | 71-8 (ligand) GQNHHEVVKSIDNEWRKTQCMPREVCIDVGKEYPDEIEYIFKPSCVPLMRCGGCCNSEGLQCMNTSTSYLSKTLFEIKPHQGQHIGEMSFANHTSCRCMSKLD |
| no binding | no binding | no binding | 74-2 (ligand) GQNHHEVVKSIDNEWRKTQCMPREVCIDVGKEFGVATNTFFKPSCVPLMRCGGCCNDEGLECMNTSTSYLSKTLFEIKPHQGQHIGEMSFLQHNKCECRPKKD |
| no binding | no binding | no binding | 71-3 (ligand) GQNHHEVVKSIDNEWRKTQCMPREVCIDVGKEYPDEIEYIFKPSCVPLMRCGGCCNSEGLQCVPTEESNITMQIMRIKPHQGQHIGEMSFLQHNKCECRPKKD |
| no binding | no binding | no binding | 73-1 (ligand) GQNHHEVVKSIDNEWRKTQCMPREVCIDVGKEYPDEIEYIFKPPCVSVYRCGGCCNDEGLECVPTEESNITMQIMRIKPHQGQHIGEMSFLQHNKCECRPKKD |
| no binding | no binding | no binding | 74-3 (ligand) GQNHHEVVKSIDNEWRKTQCMPREVCIDVGKEFGVATNTFFKPSCVPLMRCGGCCNSEGLQCVPTEESNITMQIMRIKPHQGQHIGEMSFLQHNKCECRPKKD |
| no binding | no binding | no binding | 74-1 (ligand) GQNHHEVVKSIDNEWRKTQCMPREVCIDVGKEFGVATNTFFKPSCVPLMRCGGCCNDEGLECVPTEESNITMQIMRIKPHQGQHIGEMSFLQHNKCECRPKKD |
| no binding | no binding | no binding | 71-7 (ligand) GQNHHEVVKSIDNEWRKTQCMPREVCIDVGKEYPDEIEYIFKPSCVPLMRCGGCCNSEGLQCVPTEESNITMQIMRIKPHQGQHIGEMSFANHTSCRCMSKLD |
| no binding | no binding | no binding | 73-3 (ligand) GQNHHEVVKSIDNEWRKTQCMPREVCIDVGKEYPDEIEYIFKPPCVSVYRCGGCCNSEGLQCVPTEESNITMQIMRIKPHQGQHIGEMSFLQHNKCECRPKKD |
| no binding | no binding | no binding | 71-5 (ligand) GQNHHEVVKSIDNEWRKTQCMPREVCIDVGKEYPDEIEYIFKPSCVPLMRCGGCCNDEGLECVPTEESNITMQIMRIKPHQGQHIGEMSFANHTSCRCMSKLD |
